The results in this text go back to PMC8461307 (2021).

In this assay the target is purified C3b (UniProt P01024 23-667; P01024 749-1663). The experiment in a line: SPR. On the technique in general: SPR reads the build-up and loss of mass on a sensor chip optically.
purified C3b, sequence (P01024 23-667, chain 1 of 2): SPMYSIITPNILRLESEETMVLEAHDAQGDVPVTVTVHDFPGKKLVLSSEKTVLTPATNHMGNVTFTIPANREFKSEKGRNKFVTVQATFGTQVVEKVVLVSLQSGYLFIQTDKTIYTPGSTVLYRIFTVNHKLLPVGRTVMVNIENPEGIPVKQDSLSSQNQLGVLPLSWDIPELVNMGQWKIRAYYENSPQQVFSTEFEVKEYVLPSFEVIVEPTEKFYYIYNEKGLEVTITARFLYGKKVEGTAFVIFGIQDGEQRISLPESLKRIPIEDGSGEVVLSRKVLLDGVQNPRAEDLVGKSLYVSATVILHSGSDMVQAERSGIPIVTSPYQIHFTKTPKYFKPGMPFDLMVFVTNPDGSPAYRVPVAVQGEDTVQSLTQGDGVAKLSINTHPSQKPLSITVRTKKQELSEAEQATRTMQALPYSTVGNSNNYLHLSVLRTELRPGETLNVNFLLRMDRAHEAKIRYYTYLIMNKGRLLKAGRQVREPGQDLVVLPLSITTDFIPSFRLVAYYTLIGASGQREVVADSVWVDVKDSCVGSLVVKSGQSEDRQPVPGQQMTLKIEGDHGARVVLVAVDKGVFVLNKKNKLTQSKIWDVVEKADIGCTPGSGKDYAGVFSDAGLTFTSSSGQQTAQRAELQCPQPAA
purified C3b, sequence (P01024 749-1663, chain 2 of 2): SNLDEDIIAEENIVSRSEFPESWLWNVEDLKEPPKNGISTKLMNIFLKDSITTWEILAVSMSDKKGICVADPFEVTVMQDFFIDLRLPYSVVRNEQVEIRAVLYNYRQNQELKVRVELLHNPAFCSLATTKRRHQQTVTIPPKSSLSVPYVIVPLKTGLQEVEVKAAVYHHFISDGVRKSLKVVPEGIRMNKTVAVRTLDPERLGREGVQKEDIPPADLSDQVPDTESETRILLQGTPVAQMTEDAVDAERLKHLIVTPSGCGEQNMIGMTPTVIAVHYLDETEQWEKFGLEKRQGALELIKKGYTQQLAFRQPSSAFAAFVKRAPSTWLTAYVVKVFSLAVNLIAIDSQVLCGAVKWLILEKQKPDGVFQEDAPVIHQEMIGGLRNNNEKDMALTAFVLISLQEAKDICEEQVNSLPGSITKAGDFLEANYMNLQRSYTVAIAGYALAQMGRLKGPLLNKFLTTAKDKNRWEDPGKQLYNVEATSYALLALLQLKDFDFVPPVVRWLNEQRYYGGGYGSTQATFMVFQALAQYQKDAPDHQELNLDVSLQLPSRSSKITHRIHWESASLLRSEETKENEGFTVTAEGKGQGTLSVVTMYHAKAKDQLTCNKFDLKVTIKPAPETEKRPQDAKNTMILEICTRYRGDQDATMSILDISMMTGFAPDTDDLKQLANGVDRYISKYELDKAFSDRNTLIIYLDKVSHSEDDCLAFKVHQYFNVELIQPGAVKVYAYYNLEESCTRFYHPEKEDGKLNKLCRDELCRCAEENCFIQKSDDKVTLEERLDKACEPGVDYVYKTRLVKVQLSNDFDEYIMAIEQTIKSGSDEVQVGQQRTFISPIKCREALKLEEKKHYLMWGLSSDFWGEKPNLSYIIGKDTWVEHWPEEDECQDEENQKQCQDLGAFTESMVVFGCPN

B1: recombinant wild-type Factor H-related protein 5 (FHR-5WT) (natural protein)
chain: EGTLCDFPKIHHGFLYDEEDYNPFSQVPTGEVFYYSCEYNFVSPSKSFWTRITCTEEGWSPTPKCLRMCSFPFVKNGHSESSGLIHLEGDTVQIICNTGYSLQNNEKNISCVERGWSTPPICSFTKGECHVPILEANVDAQPKKESYKVGDVLKFSCRKNLIRVGSDSVQCYQFGWSPNFPTCKGQVRSCGPPPQLSNGEVKEIRKEEYGHNEVVEYDCNPNFIINGPKKIQCVDGEWTTLPTCVEQVKTCGYIPELEYGYVQPSVPPYQHGVSVEVNCRNEYAMIGNNMITCINGIWTELPMCVATHQLKRCKIAGVNIKTLLKLSGKEFNHNSRIRYRCSDIFRYRHSVCINGKWNPEVDCTEKREQFCPPPPQIPNAQNMTTTVNYQDGEKVAVLCKENYLLPEAKEIVCKDGRWQSLPRCVESTAYCGPPPSINNGDTTSFPLSVYPPGSTVTYRCQSFYKLQGSVTVTCRNKQWSEPPRCLDPCVVSEENMNKNNIQLKWRNDGKLYAKTGDAVEFQCKFPHKAMISSPPFRAICQEGKFEYPICE
The molecule B1 had a koff of 0.141 s⁻¹.

As usually defined, the koff is a measure of how fast the partners let go of each other. A low value points to slow dissociation.
